Data taken from doi:10.1101/2020.05.08.085126.
Read-outs that look alike come from different tables or passages of the source.

T1: His-MBP-STF-HD (Medicago truncatula, UniProt G0ZGT3 85-190)
T1 sequence: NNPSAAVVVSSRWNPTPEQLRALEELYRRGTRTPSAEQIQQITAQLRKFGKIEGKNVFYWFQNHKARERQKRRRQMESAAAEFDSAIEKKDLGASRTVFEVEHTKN


What was measured:
[1] = target: T1, His-MBP-STF-HD; test: EMSA
[2] = target: T1, His-MBP-STF-HD; test: EMSA; remark: listed apart in the source

| Binder | binding result [1] | binding result [2] |
| --- | --- | --- |
| MtLOB39 promoter P2 (dsDNA) DNA 1: TATTCAAATTAATGATTTATTCAATTTT DNA 2: AAAATTGAATAAATCATTAATTTGAATA | binds |  |
| MtLOB38 promoter P2 (dsDNA) DNA 1: TCAAATTTCAAATAGAATAAATTTGAAAGTGATAAATGATTAATTATTTT DNA 2: AAAATAATTAATCATTTATCACTTTCAAATTTATTCTATTTGAAATTTGA |  | binds |
| MtLOB39 promoter P1 (dsDNA) DNA 1: GACCAATCAATGTTGAAAATGTAGAATATT DNA 2: AATATTCTACATTTTCAACATTGATTGGTC | binds |  |
| MtLOB39 promoter P3 (dsDNA) DNA 1: CTTTCAATTATACATTTTAATTAATATTAATTT DNA 2: AAATTAATATTAATTAAAATGTATAATTGAAAG | binds |  |
| MtLOB38 promoter P1 (dsDNA) DNA 1: AAAAAAAAATTATATATTAATAGTAATAAATAATAAAAAATAAT DNA 2: ATTATTTTTTATTATTTATTACTATTAATATATAATTTTTTTTT |  | binds |
